One data set deals with CYP2D6 (Homo sapiens, UniProt P10635). Briefly: CYP2D6 inhibition in pooled human liver microsomes. To be noted: 10 μM compound, dextrorphan formation rate. In kind it is in vitro ADME. On the set-up: Pooled human liver microsomes (HLM, final concentration 0.05 mg protein/mL); tissue BD Biosciences 452161; host or cells: pooled human liver microsomes. As to the method:
Stock solutions of the test compounds (1 mM) were prepared in 50% isopropanol or 20% DMSO. Pooled human liver microsomes (HLM, final concentration 0.05 mg protein/mL) were mixed with phosphate buffer (0.1 M potassium phosphate, pH 7.4), CYP2D6 substrate (dextrometrorphan, 5 μM final concentration) and test compound (10 μM), quinidine (0.5 μM) or vehicle (0.2% DMSO or 0.5% isopropanol). The mixture was preincubated for 5 min at 37° C. prior to initiation of the reaction addition of a NADPH regenerating mixture (Final concentration: 1.25 mM NADP^+, 3.3 mM Glucose-6-phosphate, 3.3 mM MgCL2 and 0.4 U/mL glucose-6-phosphat dehydrogenase). After 5 minutes the reaction was stopped by addition of 0.25 volume stop reagent (94% acetonitrile, 6% acetic acid). Each experiment was performed in duplicate or triplicate.
The quantification of CYP2D6 product (dextrorphan) was performed by LC/MS/MS. After centrifugation for 5 min at 10.000 g, 40 μL of the supernatant was injected onto a C8 RP-HPLC column (XterraMS, C8, […], 50×2.1 mm). Dextrorphan was eluted by a linear gradient from 0 to 90% acetonitrile in 0.1% formic acid over 4 min using a flow rate of 0.15 ml/min. The concentration of dextrorphan in the reaction mixture was estimated from the peak area of the MS/MS transition (m/z 258.1>199) using an external calibration curve (Table 8).
The CYP2D6 activity in HLM was calculated as the metabolite formation rate: […]
Where, v is the formation rate, [metabolite] is the detected concentration of dextrorphan (pmol/mL) at the time (t, min) and [protein] is the protein concentration (mg/mL) in the reaction mixture. The influence of the test compounds on the CYP2D6 activity was calculated as % of the activity measured when incubated with the vehicle. The effect of CYP2D6 inhibitor (quinidine) was included as inhibition control within each batch analysis. A reduction in CYP2D6 activity to less than 70% of the vehicle control was considered significant.
For orientation: Microsomes from liver hold many membrane-bound enzymes, among them those of drug oxidation.

For data set [1], the target named is T1, Saos-2 PTH1R (Homo sapiens, UniProt Q03431).
T1 construct: endogenous in cells; host or cells: Saos-2
T1 sequence (Q03431 27-593): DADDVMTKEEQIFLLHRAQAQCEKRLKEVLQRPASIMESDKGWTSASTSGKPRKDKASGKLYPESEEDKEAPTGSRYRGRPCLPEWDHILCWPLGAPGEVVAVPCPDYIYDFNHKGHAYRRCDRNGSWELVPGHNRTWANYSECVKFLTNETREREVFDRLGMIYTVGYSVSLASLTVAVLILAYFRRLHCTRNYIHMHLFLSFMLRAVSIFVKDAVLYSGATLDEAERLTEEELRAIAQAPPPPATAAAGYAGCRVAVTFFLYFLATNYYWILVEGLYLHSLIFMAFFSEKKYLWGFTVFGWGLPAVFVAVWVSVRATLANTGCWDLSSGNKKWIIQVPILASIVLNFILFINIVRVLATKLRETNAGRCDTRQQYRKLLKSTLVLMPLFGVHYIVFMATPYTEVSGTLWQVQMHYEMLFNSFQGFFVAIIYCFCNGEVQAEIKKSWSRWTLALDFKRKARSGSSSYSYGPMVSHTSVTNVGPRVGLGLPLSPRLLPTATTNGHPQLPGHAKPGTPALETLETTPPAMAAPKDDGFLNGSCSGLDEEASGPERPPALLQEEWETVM
In words: cAMP-efficacy assay in Saos-2 cells. In kind it is cell-based. Particulars: cAMP, 100 μM IBMX, 37° C. 15 min, suffix of label = salt tested. An outline of the steps: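 cAMP accumulation was assayed by FlashPlate after 15 min peptide stimulation at 37 °C of Saos-2 cells in Tyrode's buffer containing 100 μM IBMX and 0.1% BSA, with the reaction stopped by ice-cold HCl. Variable-slope logistic fitting gave EC50/pEC50, Hill coefficient and Emax, with single or triplicate points.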

Data set [2] concerns the target Saos-2 PTH1R (UniProt Q03431). In words: cell-based or functional assay.

These results are taken from patent US20100048462A1, “TRUNCATED PTH PEPTIDES WITH A CYCLIC CONFORMATION” (Zealand Pharma A/S, priority 2006, published 2010).

Bridge positions count the residues as written; N and C are the ends. Square brackets hold non-standard residues; d marks the D form. hArg = N=C(N)NCCCC[C@H](N)C(=O)O; Ac5c = NC1(C(=O)O)CCCC1; Abu = CC[C@H](N)C(=O)O; Aib = CC(C)(N)C(=O)O

CYP2D6, sequence (P10635 whole entry): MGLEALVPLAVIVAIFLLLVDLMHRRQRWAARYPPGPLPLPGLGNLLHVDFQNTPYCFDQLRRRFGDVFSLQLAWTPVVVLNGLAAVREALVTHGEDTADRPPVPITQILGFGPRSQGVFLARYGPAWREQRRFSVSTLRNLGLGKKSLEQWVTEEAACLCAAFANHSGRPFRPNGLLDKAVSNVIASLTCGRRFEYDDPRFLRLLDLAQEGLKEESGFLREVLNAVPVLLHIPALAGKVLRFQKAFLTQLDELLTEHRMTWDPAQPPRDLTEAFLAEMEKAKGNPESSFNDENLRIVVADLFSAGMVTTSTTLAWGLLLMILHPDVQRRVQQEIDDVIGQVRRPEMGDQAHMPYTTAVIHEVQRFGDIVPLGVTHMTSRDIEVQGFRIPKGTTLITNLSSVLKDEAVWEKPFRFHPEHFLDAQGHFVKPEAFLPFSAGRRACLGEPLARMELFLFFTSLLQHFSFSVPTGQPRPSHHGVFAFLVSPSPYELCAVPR

Turning to `CC[C@H](C)[C@H](NC(=O)[C@H](CCC(=O)O)NC(=O)[C@H](CO)NC(=O)[C@@H](NC(=O)[C@@H](N)CO)C(C)C)C(=O)N[C@@H](CCC(N)=O)C(=O)N[C@@H](CC(C)C)C(=O)N[C@@H](CCSC)C(=O)N[C@@H](Cc1c[nH]cn1)C(=O)N[C@@H](CC(N)=O)C(=O)N[C@@H](CC(C)C)C(=O)NCC(=O)N[C@H]1CCCCNC(=O)C[C@@H](C(N)=O)NC(=O)[C@H](CC(N)=O)NC(=O)[C@H](CC(C)C)NC(=O)[C@H](Cc2c[nH]cn2)NC1=O` [SEQ ID NO: 36], the “CYP2D6 activity (% of vehicle)” value on CYP2D6 was 79 % of vehicle. Moreover, the “pEC50 ± SEM” value on Saos-2 PTH1R [1] is “inactive”.

B1: H-Ac5c-Val-Aib-Glu-Ile-Gln-Leu-Met-His-Gln-Arg-Ala-Lys( )-Trp-Leu-Asn-Asp( )-NH2 (peptide)
chain: H-[Ac5c]V[Aib]EIQLMHQRAKWLND-NH2
modifications: lactam 13-17
SMILES: CC[C@H](C)[C@H](NC(=O)[C@H](CCC(=O)O)NC(=O)C(C)(C)NC(=O)[C@@H](NC(=O)C1(N)CCCC1)C(C)C)C(=O)N[C@@H](CCC(N)=O)C(=O)N[C@@H](CC(C)C)C(=O)N[C@@H](CCSC)C(=O)N[C@@H](Cc1c[nH]cn1)C(=O)N[C@@H](CCC(N)=O)C(=O)N[C@@H](CCCNC(=N)N)C(=O)N[C@@H](C)C(=O)N[C@H]1CCCCNC(=O)C[C@@H](C(N)=O)NC(=O)[C@H](CC(N)=O)NC(=O)[C@H](CC(C)C)NC(=O)[C@H](Cc2c[nH]c3ccccc23)NC1=O
On to B1, for which, in the data set with Saos-2 PTH1R [2], the Emax, cAMP efficacy assay in Saos-2 cells (25T, trifluoroacetate salt) (relative to control (SEQ ID NO: 32)) was 1.04 and the pEC50, cAMP efficacy assay in Saos-2 cells (25T, trifluoroacetate salt) was 8.05 -log(M).

B2: H-Ac5c-Val-Aib-Glu-Ile-Glu-Leu-Leu-His-Gln-Har-Ala-Lys( )-Trp-Leu-Asn-Asp( )-NH2 (peptide)
chain: H-[Ac5c]V[Aib]EIELLHQ[hArg]AKWLND-NH2
modifications: lactam 13-17
SMILES: CC[C@H](C)[C@H](NC(=O)[C@H](CCC(=O)O)NC(=O)C(C)(C)NC(=O)[C@@H](NC(=O)C1(N)CCCC1)C(C)C)C(=O)N[C@@H](CCC(=O)O)C(=O)N[C@@H](CC(C)C)C(=O)N[C@@H](CC(C)C)C(=O)N[C@@H](Cc1c[nH]cn1)C(=O)N[C@@H](CCC(N)=O)C(=O)N[C@@H](CCCCNC(=N)N)C(=O)N[C@@H](C)C(=O)N[C@H]1CCCCNC(=O)C[C@@H](C(N)=O)NC(=O)[C@H](CC(N)=O)NC(=O)[C@H](CC(C)C)NC(=O)[C@H](Cc2c[nH]c3ccccc23)NC1=O
Consider B2, for which, in the data set with Saos-2 PTH1R [2], the Emax, cAMP efficacy assay in Saos-2 cells (29T, trifluoroacetate salt) (relative to control (SEQ ID NO: 32)) stood at 1.27 and the pEC50, cAMP efficacy assay in Saos-2 cells (29T, trifluoroacetate salt) was 6.95 -log(M).

B3: H-Abu-Val-Aib-Glu-Ile-Gln-Leu-Leu-His-Gln-Har-Ala-Lys( )-Trp-Leu-Asn-Asp( )-NH2 (peptide)
chain: H-[Abu]V[Aib]EIQLLHQ[hArg]AKWLND-NH2
modifications: lactam 13-17
SMILES: CC[C@H](N)C(=O)N[C@H](C(=O)NC(C)(C)C(=O)N[C@@H](CCC(=O)O)C(=O)N[C@H](C(=O)N[C@@H](CCC(N)=O)C(=O)N[C@@H](CC(C)C)C(=O)N[C@@H](CC(C)C)C(=O)N[C@@H](Cc1c[nH]cn1)C(=O)N[C@@H](CCC(N)=O)C(=O)N[C@@H](CCCCNC(=N)N)C(=O)N[C@@H](C)C(=O)N[C@H]1CCCCNC(=O)C[C@@H](C(N)=O)NC(=O)[C@H](CC(N)=O)NC(=O)[C@H](CC(C)C)NC(=O)[C@H](Cc2c[nH]c3ccccc23)NC1=O)[C@@H](C)CC)C(C)C
With B3, in the data set with Saos-2 PTH1R [2], the Emax, cAMP efficacy assay in Saos-2 cells (11T, trifluoroacetate salt) (relative to control (SEQ ID NO: 32)) amounted to 1.04 and the pEC50, cAMP efficacy assay in Saos-2 cells (11T, trifluoroacetate salt) was 7.17 -log(M).

B4: H-Ac5c-Val-Abu-Glu-Ile-Gln-Leu-Leu-His-Gln-Har-Ala-Lys( )-Trp-Leu-Asn-Asp( )-NH2 (peptide)
chain: H-[Ac5c]V[Abu]EIQLLHQ[hArg]AKWLND-NH2
modifications: lactam 13-17
SMILES: CC[C@H](NC(=O)[C@@H](NC(=O)C1(N)CCCC1)C(C)C)C(=O)N[C@@H](CCC(=O)O)C(=O)N[C@H](C(=O)N[C@@H](CCC(N)=O)C(=O)N[C@@H](CC(C)C)C(=O)N[C@@H](CC(C)C)C(=O)N[C@@H](Cc1c[nH]cn1)C(=O)N[C@@H](CCC(N)=O)C(=O)N[C@@H](CCCCNC(=N)N)C(=O)N[C@@H](C)C(=O)N[C@H]1CCCCNC(=O)C[C@@H](C(N)=O)NC(=O)[C@H](CC(N)=O)NC(=O)[C@H](CC(C)C)NC(=O)[C@H](Cc2c[nH]c3ccccc23)NC1=O)[C@@H](C)CC
In the case of B4, in the data set with Saos-2 PTH1R [2], the Emax, cAMP efficacy assay in Saos-2 cells (15T, trifluoroacetate salt) (relative to control (SEQ ID NO: 32)) turned out to be 1.04 and the pEC50, cAMP efficacy assay in Saos-2 cells (15T, trifluoroacetate salt) was 7.22 -log(M).

B5: H-Ac5c-Val-Aib-Glu-Ile-Gln-Phe-Leu-His-Gln-Har-Ala-Lys( )-Trp-Leu-Asn-Asp( )-NH2 (peptide)
chain: H-[Ac5c]V[Aib]EIQFLHQ[hArg]AKWLND-NH2
modifications: lactam 13-17
SMILES: CC[C@H](C)[C@H](NC(=O)[C@H](CCC(=O)O)NC(=O)C(C)(C)NC(=O)[C@@H](NC(=O)C1(N)CCCC1)C(C)C)C(=O)N[C@@H](CCC(N)=O)C(=O)N[C@@H](Cc1ccccc1)C(=O)N[C@@H](CC(C)C)C(=O)N[C@@H](Cc1c[nH]cn1)C(=O)N[C@@H](CCC(N)=O)C(=O)N[C@@H](CCCCNC(=N)N)C(=O)N[C@@H](C)C(=O)N[C@H]1CCCCNC(=O)C[C@@H](C(N)=O)NC(=O)[C@H](CC(N)=O)NC(=O)[C@H](CC(C)C)NC(=O)[C@H](Cc2c[nH]c3ccccc23)NC1=O
For B5, in the data set with Saos-2 PTH1R [2], the Emax, cAMP efficacy assay in Saos-2 cells (27T, trifluoroacetate salt) (relative to control (SEQ ID NO: 32)) is 0.92 and the pEC50, cAMP efficacy assay in Saos-2 cells (27T, trifluoroacetate salt) is 7.91 -log(M).

B6: H-Ac5c-Val-Aib-Glu-Ile-Gln-Leu-Met-His-Gln-Har-Ala-Lys( )-Trp-Leu-Asp-Asp( )-NH2 (peptide)
chain: H-[Ac5c]V[Aib]EIQLMHQ[hArg]AKWLDD-NH2
modifications: lactam 13-17
SMILES: CC[C@H](C)[C@H](NC(=O)[C@H](CCC(=O)O)NC(=O)C(C)(C)NC(=O)[C@@H](NC(=O)C1(N)CCCC1)C(C)C)C(=O)N[C@@H](CCC(N)=O)C(=O)N[C@@H](CC(C)C)C(=O)N[C@@H](CCSC)C(=O)N[C@@H](Cc1c[nH]cn1)C(=O)N[C@@H](CCC(N)=O)C(=O)N[C@@H](CCCCNC(=N)N)C(=O)N[C@@H](C)C(=O)N[C@H]1CCCCNC(=O)C[C@@H](C(N)=O)NC(=O)[C@H](CC(=O)O)NC(=O)[C@H](CC(C)C)NC(=O)[C@H](Cc2c[nH]c3ccccc23)NC1=O
Take B6: in the data set with Saos-2 PTH1R [2], the Emax, cAMP efficacy assay in Saos-2 cells (23T, trifluoroacetate salt) (relative to control (SEQ ID NO: 32)) was determined as 1.16 and the pEC50, cAMP efficacy assay in Saos-2 cells (23T, trifluoroacetate salt) is 7.48 -log(M).

B7: H-Aib-Val-Ac5c-Glu-Ile-Gln-Leu-Leu-His-Gln-Har-Ala-Lys( )-Trp-Leu-Asn-Asp( )-NH2 (peptide)
chain: H-[Aib]V[Ac5c]EIQLLHQ[hArg]AKWLND-NH2
modifications: lactam 13-17
SMILES: CC[C@H](C)[C@H](NC(=O)[C@H](CCC(=O)O)NC(=O)C1(NC(=O)[C@@H](NC(=O)C(C)(C)N)C(C)C)CCCC1)C(=O)N[C@@H](CCC(N)=O)C(=O)N[C@@H](CC(C)C)C(=O)N[C@@H](CC(C)C)C(=O)N[C@@H](Cc1c[nH]cn1)C(=O)N[C@@H](CCC(N)=O)C(=O)N[C@@H](CCCCNC(=N)N)C(=O)N[C@@H](C)C(=O)N[C@H]1CCCCNC(=O)C[C@@H](C(N)=O)NC(=O)[C@H](CC(N)=O)NC(=O)[C@H](CC(C)C)NC(=O)[C@H](Cc2c[nH]c3ccccc23)NC1=O
Turning to B7, in the data set with Saos-2 PTH1R [2], the Emax, cAMP efficacy assay in Saos-2 cells (13T, trifluoroacetate salt) (relative to control (SEQ ID NO: 32)) was determined as 0.96 and the pEC50, cAMP efficacy assay in Saos-2 cells (13T, trifluoroacetate salt) was 7.27 -log(M).
